Experimental data from PMC6319348, “Phase I/II clinical trial of the targeted chemotherapeutic drug, folate-tubulysin, in dogs with naturally-occurring invasive urothelial carcinoma” (Oncotarget, 2018).
“And” between values parts separate entries of the source, which are not always exact repeats. Equal values may be shown once. “Also recorded” adds a separate entry of the source. Read-outs that look alike come from different tables or passages of the source. Marks after values point to notes of the source that are not given here.

Columns and labels:
[1] = Plasma pharmacokinetic analysis; type: in vivo, dog
Method: Plasma pharmacokinetic analysis was conducted in six dogs sequentially enrolled in the trial. Blood was collected at 0, 2, 10, and 30 minutes, and at 1, 2, 8, and 24 hours after treatment.
(§1) Tubes were centrifuged, and plasma collected and stored at –80° C.
For the analysis of EC0531 concentrations in plasma, the EC0531 was extracted from 100 µL of dog plasma by 96-well solid phase extraction (SPE). Internal standard was added to all samples prior to extraction using a Strata X-A SPE plate (Phenomenex, Torrance, CA, USA). The eluate was collected, evaporated, and finally reconstituted with 85/15 water/acetonitrile with 40 mM mannitol. The extracted samples were injected into a UPLC/MS/MS system (Waters, Milford, MA, USA) using a BEH C18 reverse phase column (Waters) implementing a mobile phase gradient. Incurred sample concentrations were then back-calculated against a calibration curve prepared in blank dog plasma.
(§2) Internal standard was added to all samples prior to extraction using a 200 µL SLE+ plate (Biotage, Charlotte, NC, USA). The eluate was collected, evaporated, and reconstituted with acetone prior to sealing and heating the collection plate for 1 hour. After incubation, the extracts were again evaporated and finally reconstituted prior to injection. The extracted samples were injected into a UPLC/MS/MS system (Waters) using a BEH shield RP18 reverse phase column (Waters) and eluted under isocratic conditions. […] Incurred sample concentrations were then back-calculated against a calibration curve prepared in blank dog plasma. […] Samples were homogenized in buffer with a bead beater, or hand held homogenizer. Aliquots (100 µL) of each sample were spiked with 400 µL internal standards in acetone. The extracts were sealed and incubated at 55° C for 1 hour. The extracts were then evaporated to remove acetone, and reconstituted. Finally, reconstituted samples were analyzed by injection into a UPLC-MS/MS system (Waters) to evaluate concentrations of EC0531 and metabolites against a prepared calibration curve.

canine iUC = conditions: randomized trial in dogs with iUC; cited from earlier work
[2] = test system: U.S. National Cancer Institute 60 tumor cell lines; design: method as in PMID 16489930; conditions: percent of cell lines tested; cited from earlier work
[3] = test system: dogs with naturally-occurring invasive urothelial carcinoma (iUC); test: Phase I dose escalation: safety, tolerability, MTD (VCOG-CTCAE); type: in vivo, dog
Method: (§3) […] […] The 10 pet dogs in the pilot study included six neutered male dogs and four spayed female dogs of a variety of breeds and weighing between 5 and 46 kg.
(§4) Dogs in dosage cohorts were enrolled using a 3+3 trial design. Inter-patient and intra-patient dose escalation was permitted. Drug tolerability was assessed by owner questionnaire, physical exam, CBC the day of treatment and seven days following treatment, and biochemistry panel at four-week intervals. Toxicity was graded using VCOG-CTCAE criteria. The EC0531 dose was increased by 0.02 mg/kg in each subsequent dose cohort if no dose limiting toxicity (DLT) was recorded. DLT was defined as an adverse event (AE) > grade 2. When a grade 3 AE occurred, the cohort was expanded to at least six dogs including six new dogs, i.e. six dogs that had not received prior EC0531 at lower doses. If more than one grade 3 AE or any grade 4 or 5 AE occurred, then six dogs were enrolled at the previous cohort. The MTD was defined as the highest dose tolerated by six dogs with no more than one grade 3 AE and no grade 4–5 AE. Intra-patient dose escalation was permitted if no AEs had occurred after two doses of the drug had been administered.
(§5) In individual dogs, the EC0531 dose was reduced by 10% if grade 2 toxicity was noted, and by 20% if grade 3 or higher toxicity was noted. Treatment was delayed by one week if the neutrophil count was <3,000/mm^3 or platelet count <100,000/mm^3 the day treatment was due.

[4] = as above; type: in vivo, dog; conditions: dog, in vivo; intravenous, every two weeks; dogs with iUC; read-out: maximum tolerated dose (MTD)
Method: as §3, §4, §5

[5] = test system: naturally-occurring invasive urothelial carcinoma (iUC); test: Phase I/II antitumor activity (tumor response, progression free interval); type: in vivo, dog
Method: In order to estimate antitumor activity, the cohort of dogs receiving the MTD was expanded with the goal to assess antitumor effects in a minimum of 24 dogs treated at or above the MTD [37]. The effects of EC0531 on the tumor were assessed by cystosonography using a specific standardized protocol and physical exam including rectal exam at four-week intervals. Complete cancer staging (thoracic radiography with left lateral, right lateral, and ventrodorsal projections; abdominal radiography with right lateral and ventrodorsal projections; and complete abdominal ultrasonography) was performed at eight-week intervals. The response in the primary tumor was determined by comparing volume measurements by cystosonography as follows: complete remission (CR, no cancer detected), partial remission (PR, ≥50% decrease in tumor volume and no new tumor lesions), stable disease (SD, <50% change in tumor volume and no new tumor lesions), and progressive disease (PD, ≥50% increase in tumor volume or the development of new tumor lesions). Metastatic lesion response was assessed by RECIST criteria. Progression free interval (PFI) was defined as the time from start of EC0531 treatment until PD of local or metastatic lesion(s). Permission to perform a necropsy was requested at the time of the dog’s death (death from cancer or other causes). Tissues collected at necropsy were examined histologically and immunohistochemically to detect FR expression in primary and metastatic lesions.
Stepwise Cox regression analysis was performed to assess the relationship between predictor variables and […] (PFI). The following variables were assessed: age, weight, sex, peripheral blood neutrophil-to-lymphocyte ratio at the start of treatment, tumor location (bladder vs urethra/prostate vs both), treatment beginning at < MTD or ≥ MTD, pretreatment with chemotherapy, concurrent use of COXi, IHC/ICC score, and best tumor response (PD vs SD vs PR/CR). Variables with p-values < 0.25 in univariate models were then included in multivariate modeling. Variable(s) with a p-value < 0.05 in the final multi-variable Cox regression model were considered to have a significant effect on PFI.

[6] = Drug concentration in iUC tissue samples; type: in vivo, dog; conditions: three dogs, approximately three hours after treatment, 0.28 mg/kg EC0531
Method: as §1, §2

[7] = test system: tumor xenograft mouse model; conditions: free drug; before effective anti-tumor activity could be observed; cited from earlier work
[8] = Avg of six dogs, EC0347 in plasma after single EC0531 0.28 mg/kg IV
[9] = dogs that had received and failed prior chemotherapy
[10] = non-responders, dogs with PD after the initial two treatments
[11] = dog, plasma, iv, 0.28 mg/kg, Avg of six dogs, EC0531 in plasma, single 0.28 mg/kg IV

With CCCC(=O)OCN(C(=O)[C@@H](NC(=O)[C@H]1CCCCN1C)C(C)CC)[C@H](C[C@@H](OC(C)=O)c1nc(C(=O)N[C@@H](Cc2ccc(O)cc2)C[C@H](C)C(=O)NN)cs1)C(C)C (stereo partly shown) [EC0347] the “Cmax, EC0347 (free drug)” value [1, 8] was 2.3 ng/mL, the “Tmax, EC0347 (free drug)” value [1, 8] was 12.0 min and the “Tmax, EC0347 (free drug)” value ([1]; individual dogs #1-6 (c0), EC0347 in plasma after single EC0531 0.28 mg/kg IV) was 10.0 min.
For CC[C@]1(O)C[C@@H]2CN(CCc3c([nH]c4ccccc34)[C@@](C(=O)OC)(c3cc4c(cc3OC)N(C)[C@H]3[C@@](O)(C(=O)OC)[C@H](OC(C)=O)[C@]5(CC)C=CCN6CC[C@]43[C@@H]65)C2)C1 [vinblastine], the “PR, percent of dogs” value (canine iUC) is listed as 22%.
In the case of CC[C@H](C)[C@H](NC(=O)[C@H]1CCCCN1C)C(=O)N(COC(=O)CC(C)C)[C@H](C[C@@H](OC(C)=O)c1nc(C(=O)N[C@@H](Cc2ccc(O)cc2)C[C@H](C)C(=O)O)cs1)C(C)C [tubulysin A], the “cell lines with growth inhibition” value [2] is listed as 33%.
With CCCC(=O)OCN(C(=O)[C@@H](NC(=O)[C@H]1CCCCN1C)[C@@H](C)CC)[C@H](C[C@@H](OC(C)=O)c1nc(C(=O)N[C@@H](Cc2ccc(O)cc2)C[C@H](C)C(=O)NNC(=O)OCCSSC[C@H](NC(=O)[C@H](CCC(=O)NC[C@H](O)[C@@H](O)[C@H](O)[C@H](O)CO)NC(=O)CC[C@H](NC(=O)[C@H](CCC(=O)NC[C@H](O)[C@@H](O)[C@H](O)[C@H](O)CO)NC(=O)CC[C@H](NC(=O)[C@H](CCC(=O)NC[C@H](O)[C@@H](O)[C@H](O)[C@H](O)CO)NC(=O)CC[C@H](NC(=O)c2ccc(NCc3cnc4nc(N)[nH]c(=O)c4n3)cc2)C(=O)O)C(=O)O)C(=O)O)C(=O)O)cs1)C(C)C [EC0531] the “tolerability of treatment at the MTD” value ([3]; 0.26 mg/kg every two weeks) was “well tolerated”, the “withdrawal from the study due to AE / toxicity” value ([3]; 28 dogs) was “No dog withdrew; also recorded: no dogs were removed” and the toxicity noted ([3]; 28 dogs, 311 doses) was “neutropenia, anorexia, or lethargy”. For the same molecule, the overall tolerability ([3]; 28 dogs, total of 311 doses) was “generally well tolerated”, the infusion reaction ([3]; a single dog, transient) was “hypotension, compensatory tachycardia, and subsequent syncopal episode” and the “Adverse events defined by VCOG-CTCAE” value ([3]; dose 0.28 mg/kg, 10 dogs, 63 doses) was 1 dog with G1 vomiting^a 1 dog with G1lethargy and G3 weight loss (DLT)^a 1 dog with G4 neutropenia (DLT)^b 1 dog with G4 infusion reaction (DLT)^b. For the same molecule, the “Adverse events defined by VCOG-CTCAE” value ([3]; dose 0.34 mg/kg, 1 dog, 5 doses) was “G3 anorexia and 1 dog with G3 anorexia (DLT)”, the “Adverse events defined by VCOG-CTCAE” value ([3]; dose 0.18 (mg/kg), 1 dog, 6 doses) was 1 dog with G1 anorexia and the “Adverse events defined by VCOG-CTCAE” value ([3]; dose 0.20 (mg/kg), 4 dogs, 14 doses) was 1 dog with G2 anorexia. The “Adverse events defined by VCOG-CTCAE” value ([3]; dose 0.22 (mg/kg), 4 dogs, 10 doses) was 1 dog with G1 lethargy, the “Adverse events defined by VCOG-CTCAE” value ([3]; dose 0.24 (mg/kg), 4 dogs, 16 doses) was 1 dog with G2 neutropenia and the “Adverse events defined by VCOG-CTCAE” value ([3]; dose 0.26 (mg/kg), 6 dogs, 33 doses) was 1 dog with G1 lethargy 1 dog with G1 vomiting and G1 neutropenia 1 dog with G2 neutropenia 1 dog with G3 neutropenia (DLT) and G2 diarrhea. The “Adverse events defined by VCOG-CTCAE” value ([3]; dose 0.30 (mg/kg), 2 dogs, 15 doses) was 1 dog with G3 neutropenia (DLT), the “Adverse events defined by VCOG-CTCAE” value ([3]; dose 0.32 (mg/kg), 1 dog, 2 doses) was “No adverse events observed” and the “toxicity observed at doses higher than the MTD” value ([3]; doses above 0.26 mg/kg every two weeks) was “grade 3-4 neutropenia and gastrointestinal toxicity”. The thrombocytopenia ([3]; one dog, heavily pretreated with chemotherapy, chronically low platelet counts) was “grade 2 thrombocytopenia”, the “outcome of weekly dose interval” value ([3]; pilot study in pet dogs) was “suspended due to neutropenia” and the neutrophil nadir ([3]; pilot study in pet dogs with iUC, n = 10 dogs) was “four to seven days after treatment”. For the same molecule, the “outcome of twice weekly dosing” value ([3]; pilot study in pet dogs, dosing not continued) was “dose limiting-neutropenia and anorexia”, the MTD [4] was 0.26 mg/kg and the “PR, percent of dogs” value ([5]; 28 dogs) was 11%. The clinical benefit rate ([5]; 28 dogs) was 71%, the PFI range ([5]; all dogs (n = 28)) was 24 to 649 days and the “median PFI” value ([5]; all dogs (n = 28)) was 103 days. For the same molecule, the “hazard ratio for PFI” value ([5]; dogs achieving PR vs dogs with PD) was 0.003 (95% CI 0–0.066), the “HR for earlier PD” value [5, 9] was 4.6 (95% CI 1.2–16.7) and the PFI range [5, 9] was 34–162. For the same molecule, the “median PFI” value [5, 9] was 95 days, the PFI range ([5]; dogs with SD) was 56 to 296 days and the “median PFI” value ([5]; dogs with SD) was 200 days. The “hazard ratio for PFI” value ([5]; dogs with SD vs dogs with PD) was 0.013 (95% CI 0.001–0.124), the PFI range [5, 10] was 24–47 and the “median PFI” value [5, 10] was 34 days. The “clinical benefit (PR + SD), number of dogs” value ([5]; of 28 dogs) was 20 dogs, the “partial remission (PR), number of dogs” value ([5]; of 28 dogs) was “three” and the “stable disease (SD), number of dogs” value ([5]; of 28 dogs) was 17 dogs. The “PFI or time of censoring” value ([5]; the three individual dogs achieving PR) was 162 days and 251 days and 649 days, the tumor response ([5]; the two dogs receiving all of their doses below the MTD) was “SD and PD” and the level at 3 h ([6]; dog, iUC tumor tissue, iv, read-out: concentration of EC0531 in iUC tissues) was 3.9 ng/mL. The “concentration of EC0531 in iUC tissues” value [6] was “below the level of detection”, the Tmax ([1]; Norwegian Elkhound, dog, individual dogs #1-6 (c0), EC0531 in plasma, single 0.28 mg/kg IV) was 2 min and the AUC(0-inf) [1, 11] was 1900 ng·h/mL. The AUC(0-t) [1, 11] was 1890 ng·h/mL, the C0 [1, 11] was 3990 ng/mL and the Cmax [1, 11] was 3490 ng/mL. It also gave a clearance [1, 11] of 2.78 mL/min/kg, a Vd ([1]; dog, plasma, iv, 0.28 mg/kg, Avg of six dogs, EC0531 in plasma, single 0.28 mg/kg IV, read-out: Vz) of 0.102 L/kg and a half-life ([1]; dog, plasma, iv, 0.28 mg/kg, Avg of six dogs, EC0531 in plasma, single 0.28 mg/kg IV, read-out: t1/2) of 24.7 min. The half-life ([1]; dog, plasma, iv, 0.28 mg/kg, dogs, 0.28 mg/kg IV, biphasic pharmacokinetic behavior, read-out: elimination half-life) was roughly 25 min, the half-life ([1]; dog, plasma, iv, 0.28 mg/kg, individual dogs #1-6 (c0), EC0531 in plasma, single 0.28 mg/kg IV, read-out: t1/2) was 22 min and the Tmax ([1]; dog, Avg of six dogs, EC0531 in plasma, single 0.28 mg/kg IV) was 2 min. The “peak plasma drug concentration relative to concentrations required to kill FR-expressing tumor cells in vitro” value ([1]; dogs receiving 0.28 mg/kg, in vitro concentrations from ref 14) was “approximately 700 times”.
In the case of CC[C@]1(O)C[C@@H]2CN(CCc3c([nH]c4ccccc34)[C@@](C(=O)OC)(c3cc4c(cc3OC)N(C)[C@H]3[C@@](O)(C(=O)NN)[C@H](O)[C@]5(CC)C=CCN6CC[C@]43[C@@H]65)C2)C1 [DAVLBH, desacetylvinblastine monohydrazide], the “toxicity in tumor xenograft mouse model” value [7] is listed as “unacceptable toxicity”.
